# Measurements: KR20160003317A (dated 2016)
# B1: SC05-157 (scFv)
# scFv: EVQLVESGAEVKKPGESLKISCKGSGYSFTNYWIGWVRQMPGKGLEWMGIVYPGDSDTRYSPSFQGQVTISADKSISTAYLQWSSLKASDTAVYYCARRMAVAGSDAFDIWGQGTMVTVSSGTGGSGGTGSGTGGSTQAVLTQPSSASGTPGQTVTISCSGSTSNIGSHNVNWYQHLPGTAPKLLIYINNKRPSGVPDRFSGSKSGSSASLAISGLQSEDEADYYCAAWDDSLRRPVFGGGTQLTVL
# notes: single-chain phage antibody: the scFv stood on phage in the ELISA
# B2: SC06-071 (scFv)
# scFv: EVQLVESGGGVVQPGRSLRLSCAASGFTFSSYGMHWVRQAPGKGLEWVAMIWSDGSNKYYADSVKGRFTISRDNSKNTLYLQMNSLRVEDTAVYYCASNYGSGSYWGGFDYWGQGTLVTVSSGTGGSGGTGSGTGGSTQSALTQPASVSGSPGQSITISCTGTSSDVGGYNLVSWYQQHPGKAPKLMIYEGSKRPSGVSNRFFGSKSGDTASLTISGLQAEDEADYYCSSYTTSSTHVFGTGTKVTVL
# notes: as for B1
# B3: SC06-077 (scFv)
# scFv: QVQLVQSGAEVKKPGSSVKVSCKASGGTFSSYAISWVRQAPGQGLEWMGGIIPIFGTANYAQKFQGRVTITADESTSTAYMELSSLRSEDTAVYYCAREGGVGPAFDIWGQGTMVTVSSGTGGSGGTGSGTGGSTDIQMTQSPDSLAVSLGERATINCKSSQSVLHNSNNKNYLAWYQQKPGQPPKLLIYWASTRESGVPDRFSGSGSGTDFTLTISSLQAEDVAVYYCQQYYGSPYTFGQGTKLEIK
# notes: as for B1
# B4: SC06-078 (scFv)
# scFv: EVQLVESGAEVKKPGSSVKVSCKASGGTFSSYAISWVRQAPGQGLEWMGGIIPIFGTANYAQKFQGKVTITADESTSTAYMELSSLRSEDTAVYYCARLSPRYYGMDVWGQGTTVTVSSGTGGSGGTGSGTGGSTQSALTQPRSVSGSPGQSVTISCTGTSSDVGGYNYVSWYQQHPGKAPKLMIYGGSERPSGVSNRFSGSKSGNTASLTISGVQAEDEADYYCSSYTSSGTLLFGGGTQLTVL
# notes: as for B1
# B5: SC06-079 (scFv)
# scFv: EVQLVESGGGLVQPGGSLRLSCAASGFTFSSYAMSWVRQAPGKGLEWVSAISGTGGSAYYADSVKGRFTISRDNSKNTVYLQMNSLRAEDTAVYYCAKGHSSGTNWGQGTLVTVSSGTGGSGGTGSGTGGSTSYVLTQPPSASGTPGQRVTISCSGSSSNIGSNFVYWYQQLPGTAPKLLIYRNNQRPSGVPDRFSGSKSGTSASLAISGLRSEDEADYYCAAWDDSLSGVLFGGGTQLTVL
# notes: as for B1
# B6: SC06-087 (scFv)
# scFv: EVQLVESGGGLVKPGGSLRLSCAASGFTFSSNSMNWVRQAPGKGLEWVSFISSSSTYIYYADSVKGRFTISRDNAKNSLYLQMNSLRAEDTAVYYCARESAAGISYDAFDIWGQGTMVTVSSGTGGSGGTGSGTGGSTQSALTQPASVSGSPGQSITISCTGTSSDVGGYKYVSWYQQHPGKAPKLMIYEVSNRPSGVSNRFSGSKSGSTASLTISGLQAEDEADYYCSSYTSSSTLGVFGTGTKVTVL
# notes: as for B1
# B7: SC06-089 (scFv)
# scFv: EVQLVETGGGLVQPGGSLRLSCAASGFTFSSYSMNWVRQAPGKGLEWVSFISSSSSTIYYADSVKGRFTIARDNAKNSLYLQMNSLRDEDTAVYYCARPVGTGISLFHAFDIWGQGTMVTVSSGTGGSGGTGSGTGGSTQSVLTQPPSVSVAPGQTARITCGGNNIGSKYVHWYQQKPGQAPVLVVYDDSDRPSGIPERFSGSNSGNTATLTISRVEAGDEADFYCQVWDGSSDPVVFGGGTKLTVL
# notes: as for B1
# B8: SC06-092 (scFv)
# scFv: EVQLVESGGGLVQPGRSLRLSCTGSGFTFGDYAMSWFRQAPGKGLEWVGFIRNKAYGGTAEYAASVKDRFIISRDDSKSIAYLQMNSLKTEDTAVYYCVRREYDTGWLDYWGQGTLVTVSSGTGGSGGTGSGTGGSTQSALTQPPSASGSPGQSVTISCTGTSSDVGGYNYVSWYQRHPGKAPKLMIYDVTDRPSGVSNRFSGSKSGNTASLTISGLQAEDEADYYCSSYTSSSTSAVFGGGTKLTVL
# notes: as for B1
# B9: SC06-191 (scFv)
# scFv: EVQLVESGGGVVQPGRSLRLSCVASEFTFSNYGMHWVRQAPGKGLEWVAVIWYDGSNEDYADSVKGRFTISRDNSKNTVYLHMNSLRAEDTAVYFCTRGQYSSTWFLDYWGQGTLVTVSSGTGGSGGTGSGTGGSTDIQLTQSPSTLSASVGDRVTITCRASQSISSWLAWYQQKPGKAPKLLIYKASSLETGVPSRFSGSGSGTDFTLTISSLQPEDFATYYCQQANSFPLTFGGGTKVDIK
# notes: as for B1
# B10: SC05-159 (scFv)
# scFv: QVQLVQSGAEVKKPGATVKISCKVSGYTFTDYYMHWVQQAPGKGLEWMGLVDPEDGETIYAEKFQGRVTITADTSTDTAYMELSSLRSDDTAVYYCARAEVMTTINNWYFDLWGRGTLVTVSSGTGGSGGTGSGTGGSTSYVLTQPPSASGTPGQRVTISCSGSSSNIGSNNVSWYQQLPGTAPKLLIYSNNQRPSGVPDRFSGSKSGTSASLAISGLQSEDEADYYCAAWDDSLNGWVFGGGTKLTVL
# notes: as for B1
# B11: SC06-198 (scFv)
# scFv: QLQLQESGPGLVKPSETLSLTCAVSGYSITSGYYWGWVRQPPGKGLEWIGSIYHTGSTYYNPSLKSRVTISVDTSKNQFSLKLNSLTAADTAVYFCASQSPAFDFWGQGTMVTVSSGTGGSGGTGSGTGGSTQSVLTQPPSVSGAPGQRVTISCTGSSSNIGTGYDVHWYQQLPGTAPKLLIYGNNNRPSGVPDRFSGSKSGTSASLAITGLQAEDEADYYCATWDDSLNGWVFGGGTKLTVP
# notes: as for B1
# B12: SC06-241 (scFv)
# scFv: EVQLVESGGGLVQPGRSLRLSCAASGFTFRSYAMYWVRQAPGKGLEWLALISHDASKMFYADSVKGRFTISRDNSKNTLSLQMNSLTIEDTAVYYCVRERTGYYGAYWGQGTLVTVSSGTGGSGGTGSGTGGSTDIQMTQSPSSLSASVGDRVTLTCRASQGIGTWLAWYQQKPGKAPKLLIYSASSLQSGVPSRFSGSGSGTDFTLSISNLQPEDFATYYCQQANSFPITFGQGTRLEIK
# notes: as for B1
# B13: SC06-242 (scFv)
# scFv: EVQLVESGPGLVKPSETLSLTCTVSGGSISSYYWSWIRQPPGKGLEWIGYIYYTGTTNYNPSLNSRVTISADTSKNQFSLKLSSVTAADTAVYYCARGGQTAGVWGKGTTVTVSSGTGGSGGTGSGTGGSTQSVLTQPPSVSVAPGQTARITCGGYNIGRKSVHWYQQKPGLAPVLVVYDNSDRPSGIPARFSGSNSGNTATLTISGTQAMDEADYYCQAWDRGTAVFGTGTKVTVL
# notes: as for B1
# B14: SC06-246 (scFv)
# scFv: EVQLVESGGGLIQPGGSLRLSCAASGFTVSSDFMTWVRQAPGRGLEWVSLIYSGGKTNYADSVKGRFTISRDNSRNTLYLQMNSLRAEDTAVYYCARSVCSTISCSKLDDWGQGTLVTVSSGTGGSGGTGSGTGGSTQAVLTQPSSVSVAPGQTARITCGGNNIGRKSVHWYQQKPGLAPVLVVNDNSDRPSGIPARFSGSNSGNTATLTISRVEAGDEADYYCHVWGSSRDHYVFGTGTKVTVL
# notes: as for B1
# B15: SC06-252 (scFv)
# scFv: EVQLVETGGGLVQPGGSLRLSCAASGLTFSSYAMSWVRQAPGKGLEWVSALSGSTTFYADSVKGRFTISRDNAKNTLYLQMNSLRAEDTAVYYCARGNYYGMDVWGQGTTVTVSSGTGGSGGTGSGTGGSTSYVLTQPPSASGTPGQRVTISCSGSSSNIGKFYVYWYQQFPGAAPKLLIYSNNQRPSGVPDRFSGSKSGTSASLAISGLQSEDEADYYCAAWDGSLNGYVFGTGTKVTVL
# notes: as for B1
# B16: SC06-388 (scFv)
# scFv: EVQLVETGAEVKKPGESLRISCKGSGYSFTSYWIAWVRQMPGKGLEWMGVIYPGDSDARYSPSFQGQVTMSVDKSISTAYLQWSSLKASDTAMYYCAKLRSKNTGLDYWGQGTLVTVSSGTGGSGGTGSGTGGSTQSALTQPPSASGSPGQSVTISCTGTSSDVGGYNFVSWYQQHPGKAPKLMIYEVSNRPSGVPDRFSGSKSGNTASLTVSGLQAEDEADYYCSSYAGNNNLAFGGGTQLTVL
# notes: as for B1
# B17: SC06-389 (scFv)
# scFv: QVQLVQSGAEVKKPGESLKISCKGSGYSFSTYWIGWVRQMPGKGLEWMGIIYPGDSDTRYSPSFQGQVTISADKSISTAHLQWSSLKASDTAMYYCARPGPRGYNHGFDYWGQGTLVTVSSGTGGSGGTGSGTGGSTSSELTQDPAESVALGQTVKITCQGDSLRRYYASWYQQKPGQAPVLVIYGKNNRPSGIPDRFSGSRSGNTASLTITGAQAEDEAVYYCNSRDSSGNSVVFGGGTKLTVL
# notes: as for B1
# B18: SC06-402 (scFv)
# scFv: QVQLVQSGAEVKKPGESLKISCKGSGYSFTSYWIGWVRQMPGKGLEWMGIIYPGDSDTRYSPSFQGQVTISADKSISTAYLQWSSLKASDTAMYYCARWGGVCSSTSCPNRDAFDIWGQGTMVTVSSGTGGSGGTGSGTGGSTQSALTQPRSVSGSPGQSVTISCTGTSSDVGGYNYVSWYQQHPGKAPKLMIYDVSNRPSGVSNRFSGSKSGNTASLTISGLQAEDEAEFHCSSYRSSGASPVVFGGGTKLTVL
# notes: as for B1
# B19: SC06-409 (scFv)
# scFv: EVQLVQSGAEVKKPGESLKISCKGSGYSFTNYWIGWVRQMPGKGLEWMGIIYPGDSDTRYSPSFQGQVTISADKSISTAYLQWSSLKASDTAMYYCARHTQNKNGMNTFDIWGQGTMVTVSSGTGGSGGTGSGTGGSTQSALTQPPSASGSPGQSVTISCTGTSSDIGGYNYVSWYQQHPGKAPKLMIYEVSNRPPGVSNRFSGSKSGNTASLTISGLQAEDEADYYCSSYSTTTTRVIFGGGTKLTVL
# notes: as for B1
# B20: SC06-415 (scFv)
# scFv: EVQLVESGGGLVQPGRSLRLSCAASGFTFDDYAMHWVRQAPGKGLEWVSGISWNSGSIGYADSVKGRFTISRDNAKNSLYLQMNSLRAEDSAVYYCARGGQRFDFWGQGTLVTVSSGTGGSGGTGSGTGGSTQSALTQPPSASGSPGQSVTISCTGTSSDVGGYNYVSWYQQLPGKAPKLLIYDVNNRPSGVSNRFSGSKSGNTASLTISGLQAEDEAEYYCGSSVGSRLRIFGGGTKLTVL
# notes: as for B1
# Biological target: T1, 송아지 혈청 알부민(BSA) (bovine (printed: 송아지 혈청 알부민), UniProt P02769 25-607)
# T1 construct: also called bovine serum albumin
# Experiment: phage ELISA, 1% BSA coated, anti-M13-peroxidase, absorbance 492 nm
# T1 sequence (P02769 25-607 limits assumed): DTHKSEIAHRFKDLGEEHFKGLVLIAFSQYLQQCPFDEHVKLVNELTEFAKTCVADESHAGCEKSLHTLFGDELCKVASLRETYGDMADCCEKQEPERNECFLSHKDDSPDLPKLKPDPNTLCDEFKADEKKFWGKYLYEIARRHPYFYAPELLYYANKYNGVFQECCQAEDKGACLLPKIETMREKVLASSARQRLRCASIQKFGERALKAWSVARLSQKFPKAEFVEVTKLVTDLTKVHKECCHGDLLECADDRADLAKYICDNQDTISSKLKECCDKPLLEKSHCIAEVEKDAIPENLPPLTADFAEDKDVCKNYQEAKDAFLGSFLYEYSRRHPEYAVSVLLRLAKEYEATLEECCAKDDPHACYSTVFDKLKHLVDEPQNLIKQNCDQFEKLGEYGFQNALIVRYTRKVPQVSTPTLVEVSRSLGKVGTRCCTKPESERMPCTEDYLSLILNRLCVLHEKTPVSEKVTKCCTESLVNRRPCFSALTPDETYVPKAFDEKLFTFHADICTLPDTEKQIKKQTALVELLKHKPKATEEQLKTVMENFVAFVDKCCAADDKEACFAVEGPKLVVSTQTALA
row,Binder,binding result
1,B1,no binding
2,B2,no binding
3,B3,no binding
4,B4,no binding
5,B5,no binding
6,B6,no binding
7,B7,no binding
8,B8,no binding
9,B9,no binding
10,B10,no binding
11,B11,no binding
12,B12,no binding
13,B13,no binding
14,B14,no binding
15,B15,no binding
16,B16,no binding
17,B17,no binding
18,B18,no binding
19,B19,no binding
20,B20,no binding
